The values below come from PMC6142190, “FIH permits NAA10 to catalyze the oxygen-dependent lysyl-acetylation of HIF-1α” (Redox Biology, 2018).

The target in the test is T1, GST-FIH (human, UniProt Q9NWT6 1-349).
T1 construct: human FIH, cDNA NM_017902.2 in pGEX; also called recombinant FIH
Description: pull-down; GST-FIH and His-NAA10 WT or W38F in binding buffer, 4 °C, 1 h; nickel affinity beads; Western blot. Particulars: both partners purified. (In general: A western blot detects proteins with antibodies after separation by electrophoresis.)

T1 sequence (Q9NWT6 whole entry): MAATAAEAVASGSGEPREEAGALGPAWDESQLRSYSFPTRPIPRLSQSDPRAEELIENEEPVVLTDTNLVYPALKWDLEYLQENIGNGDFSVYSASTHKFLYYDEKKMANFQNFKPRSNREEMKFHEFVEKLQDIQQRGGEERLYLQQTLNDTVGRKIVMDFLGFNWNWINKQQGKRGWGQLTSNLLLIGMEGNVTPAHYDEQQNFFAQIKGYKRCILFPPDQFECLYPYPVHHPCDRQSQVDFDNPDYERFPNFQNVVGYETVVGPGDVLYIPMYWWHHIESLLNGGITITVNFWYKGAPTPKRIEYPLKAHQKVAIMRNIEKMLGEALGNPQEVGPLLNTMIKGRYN

B1: His(6)-NAA10 W38F (enzyme, human, UniProt P41227-1 1-235, looked up)
chain: MNIRNARPEDLMNMQHCNLLCLPENYQMKYYFYHGLSFPQLSYIAEDENGKIVGYVLAKMEEDPDDVPHGHITSLAVKRSHRRLGLAQKLMDQASRAMIENFNAKYVSLHVRKSNRAALHLYSNTLNFQISEVEPKYYADGEDAYAMKRDLTQMADELRRHLELKEKGRHVVLGAIENKVESKGNSPPSSGEACREEKGLAAEDSGGDSKDLSEVSETTESTDVKDSSEASDSAS
notes: human NAA10, cDNA NM_003491 in pET-28c-HIS, with W38F by PCR-based mutagenesis; also called W38F mutant; source: E. coli BL21, purified (Nickel-NTA beads, eluted with imidazole)
Take B1: the binding result was “binds”.
